The values that follow are results of earlier work, collected in patent US20260183395A1, “COMBINED THERAPIES USING IMMUNOMODULATING DRUGS” (ONK THERAPEUTICS LIMITED, priority 2022, published 2026).

The target of one data set is DR4 (Homo sapiens, UniProt O00220). The conditions noted are these: surface plasmon resonance; WO 2009/077857.
The target of the next data set is T1, decoy receptor DcR1 (Homo sapiens, UniProt O14798).
T1 sequence (O14798 26-236): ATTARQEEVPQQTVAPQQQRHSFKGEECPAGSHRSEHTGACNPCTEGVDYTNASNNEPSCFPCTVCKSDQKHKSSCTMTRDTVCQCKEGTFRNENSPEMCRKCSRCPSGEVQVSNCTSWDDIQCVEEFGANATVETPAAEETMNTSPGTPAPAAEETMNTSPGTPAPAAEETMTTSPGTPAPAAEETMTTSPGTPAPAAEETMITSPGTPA
The settings on record: surface plasmon resonance; WO 2009/077857.

Regarding “Wildtype TRAIL: Wildtype TRAIL ligand, baseline for the affinity of TRAIL variants/mutants”, the Kd is over 2 nM with DR4 and over 20 nM with decoy receptor DcR1.
